# Laboratory results reported in patent publication US20180155451A1 (published 2018).
# T1: FcγRIIa R (FcγRIIa, allotype R: Arg at position 131) extracellular domain with C-terminal His tag (human, UniProt P12318 34-217)
# T1 construct: extracellular domain; also called FcgRIIa R; 2aR; not shown: His tag at the C terminus
# T1 sequence (looked up): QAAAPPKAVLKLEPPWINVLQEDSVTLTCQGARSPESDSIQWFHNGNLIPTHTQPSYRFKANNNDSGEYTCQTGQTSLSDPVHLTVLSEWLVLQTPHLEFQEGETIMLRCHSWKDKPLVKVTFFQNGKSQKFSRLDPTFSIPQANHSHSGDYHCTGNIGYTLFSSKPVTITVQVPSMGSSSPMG
# T2: FcγRIIb extracellular domain with C-terminal His tag (human, UniProt P31994 43-217)
# T2 construct: extracellular domain; also called FcgRIIb; 2b; not shown: His tag at the C terminus
# T2 sequence (looked up): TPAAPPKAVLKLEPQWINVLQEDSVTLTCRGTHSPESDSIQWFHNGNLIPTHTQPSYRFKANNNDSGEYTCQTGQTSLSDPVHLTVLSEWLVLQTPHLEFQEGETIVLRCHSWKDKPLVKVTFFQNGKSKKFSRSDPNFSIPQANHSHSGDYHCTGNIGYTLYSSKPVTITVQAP
# B1: GpH7-A5/GpH7-B3 variant G236_02A/GpL16-k0 (antibody, human IgG1, kappa)
# heavy 1: not shown
# heavy 2: not shown
# light: DIVMTQSPLSLPVTPGEPASISCQASESLVHSNRNTYLHWYLQKPGQSPQLLIYKVSNRFSGVPDRFSGSGSGTDFTLKISRVEAEDVGVYYCSQNTHVPPTFGQGTKVEIERTVAAPSVFIFPPSDEQLKSGTASVVCLLNNFYPREAKVQWKVDNALQSGNSQESVTEQDSKDSTYSLSSTLTLSKADYEKHKVYACEVTHQGLSSPVTKSFNRGEC
# notes: He Ab: alteration in the GpH7-B3 H chain only; also called He Ab
# B2: GpH7-A5/GpH7-B3 variant G236_13S/GpL16-k0 (antibody, human IgG1, kappa)
# heavy 1: not shown
# heavy 2: not shown
# light: B1 light
# notes: as for B1
# B3: GpH7-A5/GpH7-B3 variant G236_05P/GpL16-k0 (antibody, human IgG1, kappa)
# heavy 1: not shown
# heavy 2: not shown
# light: B1 light
# notes: as for B1
# B4: GpH7-A5/GpH7-B3 variant G237_11K/GpL16-k0 (antibody, human IgG1, kappa)
# heavy 1: not shown
# heavy 2: not shown
# light: B1 light
# notes: as for B1
# B5: GpH7-A5/GpH7-B3 variant G236_16H/GpL16-k0 (antibody, human IgG1, kappa)
# heavy 1: not shown
# heavy 2: not shown
# light: B1 light
# notes: as for B1
# B6: GpH7-A5/GpH7-B3 variant G236_20W/GpL16-k0 (antibody, human IgG1, kappa)
# heavy 1: not shown
# heavy 2: not shown
# light: B1 light
# notes: as for B1
# B7: GpH7-A5/GpH7-B3 variant G236_15Y/GpL16-k0 (antibody, human IgG1, kappa)
# heavy 1: not shown
# heavy 2: not shown
# light: B1 light
# notes: as for B1
# B8: GpH7-A5/GpH7-B3 variant G237_12R/GpL16-k0 (antibody, human IgG1, kappa)
# heavy 1: not shown
# heavy 2: not shown
# light: B1 light
# notes: as for B1
# B9: GpH7-A5/GpH7-B3 variant L235_12R/GpL16-k0 (antibody, human IgG1, kappa)
# heavy 1: not shown
# heavy 2: not shown
# light: B1 light
# notes: as for B1
# B10: GpH7-A5/GpH7-B3 variant G236_14T/GpL16-k0 (antibody, human IgG1, kappa)
# heavy 1: not shown
# heavy 2: not shown
# light: B1 light
# notes: as for B1
# B11: GpH7-A5/GpH7-B3 variant G236_03V/GpL16-k0 (antibody, human IgG1, kappa)
# heavy 1: not shown
# heavy 2: not shown
# light: B1 light
# notes: as for B1
# B12: GpH7-A5/GpH7-B3 variant G236_04F/GpL16-k0 (antibody, human IgG1, kappa)
# heavy 1: not shown
# heavy 2: not shown
# light: B1 light
# notes: as for B1
# B13: GpH7-A5/GpH7-B3 variant G236_06M/GpL16-k0 (antibody, human IgG1, kappa)
# heavy 1: not shown
# heavy 2: not shown
# light: B1 light
# notes: as for B1
# B14: GpH7-A5/GpH7-B3 variant G236_07I/GpL16-k0 (antibody, human IgG1, kappa)
# heavy 1: not shown
# heavy 2: not shown
# light: B1 light
# notes: as for B1
# B15: GpH7-A5/GpH7-B3 variant G236_08L/GpL16-k0 (antibody, human IgG1, kappa)
# heavy 1: not shown
# heavy 2: not shown
# light: B1 light
# notes: as for B1
# B16: GpH7-A5/GpH7-B3 variant G236_19Q/GpL16-k0 (antibody, human IgG1, kappa)
# heavy 1: not shown
# heavy 2: not shown
# light: B1 light
# notes: as for B1
# B17: GpH7-A5/GpH7-B3 variant G236_12R/GpL16-k0 (antibody, human IgG1, kappa)
# heavy 1: not shown
# heavy 2: not shown
# light: B1 light
# notes: as for B1
# B18: GpH7-A5/GpH7-B3 variant G237_03V/GpL16-k0 (antibody, human IgG1, kappa)
# heavy 1: not shown
# heavy 2: not shown
# light: B1 light
# notes: as for B1
# Biological target: T1, FcγRIIa R (FcγRIIa, allotype R: Arg at …)
# Experiment: ratio He/Con_2aR : He/Con_2b (FcgRIIa R over FcgRIIb), SPR Biacore
# Procedure: The heterodimerized antibodies He Abs in which one of the H chains was introduced with an alteration were assayed for their binding activities to each activating FcγR and inhibitory FcγR according to the method described in Example 4. […] The activating FcγRs in FIGS. 26, 27, 28, and 29 are FcγRIa, FcγRIIa (R), FcγRIIa (H), and FcγRIIIa, respectively.
# Analysis of interaction between objective antibody and the FcγR was carried out using Biacore T100 (GE Healthcare). HBS-EP+ (GE Healthcare) was used as the running buffer, and the measurement temperature was set to 25° C. Chips produced by immobilizing the antigen peptide by the amine coupling method to a Series S Sencor Chip CM5 (GE Healthcare), or alternatively, chips produced by allowing preliminarily biotinylated antigen peptides to interact with and immobilize onto a Series S Sensor Chip SA (certified) (GE Healthcare) were used. Antibodies of interest were captured onto an antigen peptide-immobilized chip, and allowed to interact to each FcγR diluted with running buffer. To regenerate and repeatedly use the chip, the antibodies captured on the chip were washed off by reacting 10 mM glycine-HCl, pH 1.5.
row,He_2aR/2b (IIaR/IIb),Binder
1,1.51,B1
2,1.41,B2
3,2.52,B3
4,1.9,B4
5,2.24,B5
6,1.34,B6
7,1.48,B7
8,2.47,B8
9,1.69,B9
10,1.78,B10
11,2.6,B11
12,1.35,B12
13,1.26,B13
14,2.81,B14
15,2.45,B15
16,1.59,B16
17,3.55,B17
18,1.52,B18

# Biological target: T2, FcγRIIb extracellular domain with …
# Experiment: SPR Biacore, antibody captured, FcgR analyte; vs HeCon Ab GpH7-A5/GpH7-B3/GpL16-k0 = 100
row,He/Con_2b [control = 100],Binder
1,96.5,B1
2,96.7,B2
3,19,B3
4,27.9,B5
5,58.2,B6
6,39.5,B7
7,57.8,B10
8,35.3,B11
9,39.3,B12
10,45.5,B13
11,31,B14
12,26.8,B15
13,46.6,B16
14,6.8,B17
15,61.4,B18

# Biological target: T1, FcγRIIa R (FcγRIIa, allotype R: Arg at …)
# Experiment: as above
row,He/Con_2aR [control = 100],Binder
1,146,B1
2,136,B2
3,47.9,B3
4,17.1,B4
5,62.7,B5
6,77.9,B6
7,58.6,B7
8,24.2,B8
9,16.2,B9
10,103,B10
11,91.6,B11
12,53.1,B12
13,57.3,B13
14,87.1,B14
15,65.8,B15
16,74.2,B16
17,24.1,B17
18,93,B18
